Source: publication PMC10191332
pKd: −log10 of the molar value.

Target: recombinant His-gH/gL (HCMV), purified (HCMV) (UniProt P12824)
Assay: BLI

## EphA2 extracellular domain (27-534), purified (from UniProt P29317 27-534) (domain or fragment)
  pKd: 7.44
